Consider three molecules from PMC7188400 (mAbs, 2020).

Test [1] concerns the target human BDNF (Sino Biological Inc., Catalog 50240-MNAS) (Homo sapiens, UniProt P23560). The test is described as follows: SPR.
Test [2] deals with human BDNF (KinExA; supplier not stated) (Homo sapiens, UniProt P23560). The test is described as follows: kinetic exclusion assay. (A kinetic exclusion assay measures how much of one partner remains free in solution.)
Chain of human BDNF (KinExA; supplier not stated) (P23560 129-247): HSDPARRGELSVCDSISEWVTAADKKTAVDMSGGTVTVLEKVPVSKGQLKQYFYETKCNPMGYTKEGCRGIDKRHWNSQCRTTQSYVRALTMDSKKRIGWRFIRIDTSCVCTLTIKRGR

Chain of human BDNF (Sino Biological Inc., Catalog 50240-MNAS) (P23560 129-247): as above

B1: R3bH01, parental chimeric chicken-human IgG1 anti-BDNF antibody (antibody, V domains shown)
VH: AVTLDESGGGLQTPGGGLSLVCKASGFDFSSYDMHWVRQAPGKGLEWVAGIDDGGSDTYYGSAVKGRATISRDNGQSTVRLQLNNLRAEDTGTYYCAKSSYDISWNGHVENIDAWGHGTEVIVSS
VL: ALTQPTSVSTNLGGTVEITCSGAGSGYGYGWFQQKSPGSAPVTVIYSNDKRPSDIPSRFSGSKSGSTGTLTITGVQAEDEAVYFCGTYDSTDAGYAIFGAGTTLTVL
In turn, B1 gave a Kd in test [1] of 34.4 ± 5.43 nM.

B2: B30, humanized and affinity-optimized anti-BDNF IgG1 (antibody, V domains shown)
VH: not shown
VL: SSELTQPPAVSVALGQTVRITCSGAGSGYGYGWYQQKPGQAPVTVIYSNDKRPSGIPDRFSGSSSGNTASLTITGAQAEDEADYYCGTYVSAYYGYAIFGGGTKLTVL
In turn, B2 gave an equilibrium dissociation constant (Kd) in test [1] of 0.12 ± 0.01 nM.

B3: B30 Fab (Fab, V domains shown)
VH: not shown
VL: SSELTQPPAVSVALGQTVRITCSGAGSGYGYGWYQQKPGQAPVTVIYSNDKRPSGIPDRFSGSSSGNTASLTITGAQAEDEADYYCGTYVSAYYGYAIFGGGTKLTVL
B3 yielded a Kd in test [2] of 0.00106 nM.

In general, Kd refers to the constant that tells how readily two partners part at equilibrium. Higher therefore signals a looser complex.
